{"source": "paper PMC4330346", "about": "“Function of the N-terminal segment of the RecA-dependent nuclease Ref” (Nucleic Acids Research, 2015)", "molecules": {"B1": {"name": "bacteriophage P1 Ref (recombination enhancement function) protein, wild type (enzyme, UniProt P35926 1-186, looked up)", "chain": "MKTIEQKIEQCRKWQKAARERAIARQREKLADPVWRESQYQKMRDTLDRRIAKQKERPPASKTRKSAVKIKSRGLKGRTPTAEERRIANALGALPCIACYMHGVISNEVSLHHIAGRTAPGCHKKQLPLCRWHHQHAAPAEVREKYPWLVPVHADGVVGGKKEFTLLNKSEMELLADAYEMANIMH", "notes": "has Cys11; Purified in native form (no tag)"}, "B2": {"name": "AJM25 71mer ssDNA (ssDNA)", "DNA": "CAGAAGTAAGTTGGCCGCAGTGTTATCACTCATGGTTATGGCAGCACTGCATAATTCTCTTACTGTCATGC"}, "B3": {"name": "AJM25/AJG52 71 bp dsDNA (dsDNA)", "DNA 1": "B2 DNA", "DNA 2": "GCATGACAGTAAGAGAATTATGCAGTGCTGCCATAACCATGAGTGATAACACTGCGGCCAACTTACTTCTG"}}, "key": {"[1]": {"target": "ϕW39 R11C Ref (bacteriophage ϕW39)", "test": "cross-linking; non-specific cross-linker disuccinimidyl glutarate (DSG) to trap the oligomeric states of Ref (Supplementary Figure S2)"}, "[2]": {"target": "ϕW39 R11C Ref (bacteriophage ϕW39)", "test": "non-reducing SDS-PAGE; Ref dialysed free of DTT; 6.5 μg Ref, 50 mM sodium phosphate pH 7.5, 75 mM sodium chloride, no DTT; non-reducing cracking buffer, 4–15% gradient SDS-PAGE; the dimer is taken as disulfide-linked; 10 mM DTT substantially reduced the dimers of P1 WT Ref and ϕW39 R11C"}, "[3]": {"target": "the molecule itself", "test": "AUC; preliminary ultracentrifugation, unpublished data; conditions not given"}, "[4]": {"target": "T1, P1 deltaN76 Ref (bacteriophage P1, UniProt P35926 77-186, del1-76)", "T1 sequence": "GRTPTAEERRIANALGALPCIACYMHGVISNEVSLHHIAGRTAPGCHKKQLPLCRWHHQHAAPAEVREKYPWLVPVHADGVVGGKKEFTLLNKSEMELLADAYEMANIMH", "test": "fluorescence polarization; 25 mM Tris-acetate pH 8.5, 3 mM potassium glutamate, 15 mM magnesium acetate, 5% w/v glycerol, 2 nM DNA, Ref 0.5-10000 nM, 15 min at room temperature, read at 25 C; one-site fit with Hill coefficient", "settings": "protein: recombinant, tags: none (native form)"}, "[5]": {"target": "T2, phiW39 deltaN74 Ref (bacteriophage phiW39, R86T;A93T;N107E;A115S)", "T2 sequence": "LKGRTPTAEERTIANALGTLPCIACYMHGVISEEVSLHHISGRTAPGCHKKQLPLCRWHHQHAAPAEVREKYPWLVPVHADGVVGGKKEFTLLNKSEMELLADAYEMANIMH", "test": "fluorescence polarization; 25 mM Tris-acetate pH 8.5, 3 mM potassium glutamate, 15 mM magnesium acetate, 5% w/v glycerol, 2 nM DNA, Ref 0.5-10000 nM, 15 min at room temperature, read at 25 C; one-site fit with Hill coefficient", "settings": "protein: recombinant, tags: none (native form)"}, "[6]": {"target": "T3, phiW39 WT Ref (bacteriophage phiW39, I8L;C11R;K13E;V34A;T46S;L47I;R86T;A93T;N107E;A115S)", "T3 sequence": "B1 chain with I8L, C11R, K13E, V34A, T46S, L47I, R86T, A93T, N107E, A115S", "test": "fluorescence polarization; apparent Kd; 25 mM Tris-acetate pH 8.5, 3 mM potassium glutamate, 15 mM magnesium acetate, 5% w/v glycerol, 2 nM DNA, Ref 0.5-10000 nM, 15 min at room temperature, read at 25 C; one-site fit with Hill coefficient", "settings": "protein: recombinant, tags: none (native form)"}, "[7]": {"target": "T4, phiW39 deltaN59 Ref (bacteriophage phiW39, R86T;A93T;N107E;A115S)", "T4 sequence": "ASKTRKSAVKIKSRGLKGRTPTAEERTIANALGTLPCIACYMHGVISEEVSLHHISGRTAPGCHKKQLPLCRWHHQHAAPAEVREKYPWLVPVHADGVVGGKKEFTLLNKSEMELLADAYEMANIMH", "test": "fluorescence polarization; Kd value only in Figure 2C; 25 mM Tris-acetate pH 8.5, 3 mM potassium glutamate, 15 mM magnesium acetate, 5% w/v glycerol, 2 nM DNA, Ref 0.5-10000 nM, 15 min at room temperature, read at 25 C; one-site fit with Hill coefficient", "settings": "protein: recombinant; tags: none (native form); label: 5' 6-FAM; single strand"}, "[8]": {"settings": "label: 5' 6-FAM on strand 1, blunt"}}, "note": "Substitutions are numbered along the chain they refer to."}
{"molecule": "ϕW39 R11C Ref (enzyme)", "values": [{"measurement": "stoichiometry N", "setting": "[1]", "result": 2}, {"measurement": "stoichiometry N", "setting": "[2]", "result": 2}]}
{"molecule": "B1", "values": [{"measurement": "stoichiometry N", "setting": "[3]", "result": 2}]}
{"molecule": "B2", "values": [{"measurement": "binding result", "setting": "[4]; label: 5' 6-FAM, single strand", "result": "no binding"}, {"measurement": "binding result", "setting": "[5]; label: 5' 6-FAM, single strand", "result": "no binding"}, {"measurement": "Kd", "setting": "[6]; label: 5' 6-FAM, single strand", "result": "28 ± 2", "unit": "nM"}, {"measurement": "binding signal", "setting": "[7]", "result": "~40 fold reduction in affinity"}]}
{"molecule": "B3", "values": [{"measurement": "binding result", "setting": "[4]; [8]", "result": "no binding"}, {"measurement": "binding result", "setting": "[5]; [8]", "result": "no binding"}, {"measurement": "Kd", "setting": "[6]; [8]", "result": "24 ± 1", "unit": "nM"}]}
